Experimental data: paper PMC8322138, “BRCA2 binding through a cryptic repeated motif to HSF2BP oligomers does not impact meiotic recombination” (Nature Communications, 2021)
Substitutions are numbered along the chain they refer to. Numbers in names are those of the source. Where “and” joins values, the source holds several entries; their conditions need not be identical. Equal values may be shown once. Blank lines part the entries; values can stand above or below the molecule they belong to. Ends that are not written are not given here.

Legend:
GFP-HSF2BP = experiment: Co-immunoprecipitation of Flag-BRCA2 variants/fragments with GFP-HSF2BP WT; type: cell-based, human; details: transient HEK293T, anti-GFP beads, immunoblot
Excerpt: (§1) Expression constructs for producing point mutation and truncation variants of HS2BP and BRCA2 in human cells were engineered as described before[16] in the PiggyBac vectors by Gibson assembly. For transient expression into HEK293T cells plasmid DNA was transfected using calcium precipitation method or PEI transfection. For stable integration into HeLa cells, PiggyBac expression vectors were co-lipofected together with PiggyBac transposase plasmid (hyPBase[45]) with Lipofectamine 3000 (Thermo Fisher).
(§2) Cells were washed twice in ice-cold PBS and lysed in situ in NETT buffer (100 mM NaCl, 50 mM Tris pH 7.5, 5 mM EDTA pH 8.0, 0.5% Triton-X100) supplemented immediately before use with protease inhibitor cocktail (Roche) and 0.4 mg/ml Pefabloc (Roche) (NETT++); 450 µl NETT++ buffer was used per 145 mm dish ES cells, 1 ml for HeLa and HEK293T. After 5–10 min, cells were scraped off and collected in 1.5 ml microcentrifuge tubes; lysis was continued for additional 20–30 min on ice, then mixtures were centrifuged (15 min, 4 °C, 14,000 × g) and the supernatant (input) was added to washed anti-GFP beads (Chromotek). Beads and lysates were incubated 2–4 h at 4 °C while rotating, washed three times in NETT++ buffer and bound proteins were eluted by boiling in 2x Sample buffer. Immunoblotting was performed following standard procedures with the following antibodies: anti-GFP mAb (Roche, #11814460001), anti-GFP pAb (Abcam #ab290 and Invitrogen #A11122), anti-RAD51[46], anti-BRCA2 mAb Ab1 OP-95 (Millipore #OP95), anti-BRCA2 (Abcam #27976), anti-Flag (M2 antibody, Sigma, F3165 and F1804). For quantitative immunoblotting fluorescently labeled secondary antibodies were used: anti-mouse CF680 (Sigma #SAB460199), anti-rabbit CF770 (Sigma #SAB460215); membranes were scanned using Odyssey CLx imaging system (LI-COR).

HSF2BP FL = target: T1, HSF2BP FL (Homo sapiens, UniProt O75031); experiment: ITC of BRCA2 fragments with full-length HSF2BP; type: binding; details: discussion statement, read-out: affinity of BRCA2 for HSF2BP
T1 construct: Human full-length HSF2BP WT and R200T were expressed; 6xHis-TEV (N, cleaved yes); made in house; host or cells: E. coli BL21 DE3 Rosetta2
T1 sequence (O75031 1-334): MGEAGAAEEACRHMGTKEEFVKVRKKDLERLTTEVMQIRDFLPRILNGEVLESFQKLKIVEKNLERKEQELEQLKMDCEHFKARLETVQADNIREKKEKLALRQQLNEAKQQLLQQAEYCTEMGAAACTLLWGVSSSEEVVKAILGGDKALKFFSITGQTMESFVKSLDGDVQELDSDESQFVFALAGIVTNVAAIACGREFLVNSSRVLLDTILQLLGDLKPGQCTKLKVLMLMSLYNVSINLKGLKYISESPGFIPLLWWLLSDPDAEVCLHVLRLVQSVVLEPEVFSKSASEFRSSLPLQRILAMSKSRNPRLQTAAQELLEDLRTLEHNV
Excerpt: Human full-length HSF2BP WT and R200T were expressed using a pETM11 (6xHis-TEV) expression vector in E. coli BL21 DE3 Rosetta2 cells, and purified as previously reported (Brandsma et al., Cell Rep 2019). The armadillo domain of HSF2BP, from aa 122 to aa 334, which we will further name ARM, was similarly expressed using a pETM11 (6xHis-TEV) expression vector in BL21 DE3 Rosetta2 cells and purified as full-length HSF2BP.
Human BRCA2 fragment F0 was expressed using a pET-22b expression vector as a fusion protein comprising BRCA2 from aa 2213 to aa 2342 (including mutation C2332T to avoid oxidation problems), a TEV site, a GB1 and 6xHis tag, in E. coli BL21 DE3 Star cells. The BRCA2 gene was optimized for expression in bacteria and synthesized by Genscript. In addition, smaller BRCA2 fragments were produced using the same strategy: FNMR and F15X corresponding to aa 2252 to aa 2342 and aa 2291 to aa 2343, respectively. The smallest fragment F15X∆12, from aa 2312 to aa 2342, was synthesized by Genecust.
ITC experiments were performed using a high-precision VP-ITC instrument (GE Healthcare) at 293 K. To characterize the interactions between HSF2BP and BRCA2 fragments (WT, variants), the proteins were dialyzed against 25 mM Tris pH 7.5, 250 mM NaCl, 5 mM β-mercaptoethanol. The HSF2BP (or ARM domain) was in the sample cell at 10–20 μM and was titrated by BRCA2 fragments at 40–100 μM, using 10 μL injections with 210 s intervals between each injection. The first 2 μL injection was ignored in the final data analysis. The integration of the peaks corresponding to each injection. the correction for the baseline and the fit were performed using the Origin 7.0 software provided by the manufacturer, to obtain the stoichiometry (N), dissociation constant (Kd), and enthalpy of complex formation (ΔH) for each interaction. Two replicates were performed for each experiment.

BRCA2 (Flag-F9) = experiment: Co-immunoprecipitation of GFP-HSF2BP variants with Flag-BRCA2 F9; type: cell-based, human; details: transient HEK293T / stable HeLa, anti-GFP beads, immunoblot
Excerpt: as §1, §2

ARM domain of HSF2BP = target: T2, ARM domain of HSF2BP (Homo sapiens, UniProt O75031); experiment: SEC-MALS of ARM free or bound to F15X; type: physicochemical
T2 construct: The armadillo domain of HSF2BP, from aa 122 to aa 334; 6xHis-TEV (N, cleaved yes); made in house; host or cells: E. coli BL21 DE3 Rosetta2
T2 sequence (O75031 122-334): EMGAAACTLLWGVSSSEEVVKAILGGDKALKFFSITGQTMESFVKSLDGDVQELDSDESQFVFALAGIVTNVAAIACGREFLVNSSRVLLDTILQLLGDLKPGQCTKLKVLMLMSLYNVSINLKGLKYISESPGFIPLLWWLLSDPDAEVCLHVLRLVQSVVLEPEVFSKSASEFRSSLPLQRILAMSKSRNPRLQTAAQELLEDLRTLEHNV
Experimental: Size-exclusion chromatography (SEC) coupled to MALS was used in order to measure the molecular masses of the complexes in solution. Therefore, HSF2BP and ARM proteins were loaded in the presence and absence of the BRCA2 fragment F15X on a Superdex 200 10/300 GL (GE Healthcare) using a HPLC Shimadzu system coupled to MALS/QELS/UV/RI (Wyatt Technology). The chromatography buffer was 25 mM Tris-HCl buffer, pH 7.5, 250 mM NaCl, 5 mM β-mercaptoethanol. The proteins were injected at 0.8–1 mg/ml in 100 μl. Data were analyzed using the ASTRA software; a calibration was performed with BSA as a standard.

[1] = target: T3, armadillo domain of HSF2BP, from aa 122 to aa 334 (ARM) (human, UniProt O75031 122-334); experiment: ITC; HSF2BP or ARM in the cell at 10-20 uM, BRCA2 fragment in the syringe at 40-100 uM; 293 K; 25 mM Tris pH 7.5, 250 mM NaCl, 5 mM beta-mercaptoethanol; two replicates; details: both partners purified
T3 construct: Free ARM is a dimer (SEC-MALS); four ARM with two F15X in the complex; A selenomethionine-labelled form was used for the deposited crystal structure; also called HSF2BP ARM; H3 (recombinant); source: E. coli BL21 DE3 Rosetta2, purified (HisTrap, TEV cleavage, SEC)
T3 sequence (looked up): T2 sequence (O75031 122-334)

[2] = target: T4, Human full-length HSF2BP WT (human), O75031; experiment: as above
T4 chain: T1 sequence (O75031 1-334)

Molecule: F15: Flag-tagged BRCA2 fragment N2288-T2337 (NLLNEFDRIIENQEKSLKASKSTPDGTIKDRRLFMHHVSLEPITCVPFRT; also: Flag tag, end not given here)
interaction with HSF2BP (co-precipitation) (GFP-HSF2BP): minimal interaction region

B3: S2309N: Flag-BRCA2-F9 variant (protein)
chain: GKRRGEPLILVGEPSIKRNLLNEFDRIIENQEKSLKASKNTPDGTIKDRRLFMHHVSLEPITCVPFRT
modifications: left off: Flag, end not stated, kept
notes: Flag-BRCA2-F9 variant
interaction with HSF2BP (co-precipitation) (GFP-HSF2BP): either strongly decreased or abolished binding
interaction with HSF2BP (co-precipitation) (GFP-HSF2BP; listed as S2309): did not interact

B4: R2318Q: Flag-BRCA2-F9 variant (protein)
chain: B3 chain with N40S, R49Q
modifications: left off: Flag, end not stated, kept
notes: Flag-BRCA2-F9 variant
interaction with HSF2BP (co-precipitation) (GFP-HSF2BP): either strongly decreased or abolished binding
interaction with HSF2BP (co-precipitation) (GFP-HSF2BP; listed as R2318): did not interact

B5: P2329L: Flag-BRCA2-F9 variant (protein)
chain: B3 chain with N40S, P60L
modifications: left off: Flag, end not stated, kept
notes: Flag-BRCA2-F9 variant
interaction with HSF2BP (co-precipitation) (GFP-HSF2BP): either strongly decreased or abolished binding
interaction with HSF2BP (co-precipitation) (GFP-HSF2BP; listed as P2329): did not interact

B6: L2304K: Flag-BRCA2-F9 variant (protein)
chain: B3 chain with L35K, N40S
modifications: left off: Flag, end not stated, kept
notes: Flag-BRCA2-F9 variant
interaction with HSF2BP (co-precipitation) (GFP-HSF2BP): either strongly decreased or abolished binding

Now from value to molecule, other results behind:

Kd (HSF2BP FL): 1 nM
B1: BRCA2: BRCA2 (fragment F0 measured by ITC) (protein)
chain: STYSKDSENYFETEAVEIAKAFMEDDELTDSKLPSHATHSLFTCPENEEMVLSNSRIGKRRGEPLILVGEPSIKRNLLNEFDRIIENQEKSLKASKSTPDGTIKDRRLFMHHVSLEPITTVPFRTTKERQ

binding to BRCA2 (co-precipitation) (BRCA2 (Flag-F9)): minimal interaction region
B2: H3: HSF2BP fragment E122-V334, armadillo domain (protein)
chain: T2 sequence (O75031 122-334)
modifications: left off: His6, end not stated, cleaved
notes: HSF2BP fragment E122-V334, armadillo domain
oligomeric state of ARM (ARM domain of HSF2BP; SEC-MALS and SEC-SAXS): dimeric
molecular weight of species in solution (ARM domain of HSF2BP; SEC-MALS, Superdex 200 10/300 GL, 25 mM Tris-HCl pH 7.5, 250 mM NaCl, 5 mM β-mercaptoethanol): 48 kDa

Kd [1]: 10 nM and 9.4 nM
dH [1]: -10.2 kcal/mol and -9.2 kcal/mol
stoichiometry N [1]: 0.33 and 0.4
B7: Human BRCA2 fragment F15X (N2291-Q2342) (domain or fragment, UniProt P51587 2291-2342, looked up)
chain: NEFDRIIENQEKSLKASKSTPDGTIKDRRLFMHHVSLEPITTVPFRTTKERQ
notes: BRCA2, human, residues 2291-2342 (methods: aa 2291 to aa 2343); T2332 in the construct; The methods give aa 2291 to aa 2343, results and legend N2291-Q2342; A selenomethionine-labelled form was used for the deposited crystal structure; also called BRCA2 F15X; BRCA2 peptide; source: E. coli BL21 DE3 Star, purified (HisTrap, TEV cleavage, SEC); not shown: GB1, C-terminal, cleaved; His6, C-terminal, …

Kd [2]: 2100 nM and 1500 nM
dH [2]: -1.8 kcal/mol and -1.7 kcal/mol
stoichiometry N [2]: 0.9 and 0.89
Molecule: DGTIKDRRLFMHHVSLEPITTVPFRTTKERQ (modifications not checked) [BRCA2 peptide F15X∆12 (D2312-E2342)]

binding to BRCA2 (co-precipitation) (BRCA2 (Flag-F9)): strongly decreased binding
B8: R277E: GFP-HSF2BP point mutant (protein)
chain: T1 sequence (O75031 1-334) with R277E
modifications: left off: GFP, end not stated, kept
notes: GFP-HSF2BP point mutant

Kd [1]: 7.8 nM and 13 nM
dH [1]: -9.6 kcal/mol and -9.4 kcal/mol
stoichiometry N [1]: 0.47 and 0.51
B9: Human BRCA2 fragment FNMR (S2252-Q2342) (domain or fragment, UniProt P51587 2252-2342, looked up)
chain: SLFTCPENEEMVLSNSRIGKRRGEPLILVGEPSIKRNLLNEFDRIIENQEKSLKASKSTPDGTIKDRRLFMHHVSLEPITTVPFRTTKERQ
notes: BRCA2, human, residues 2252-2342; produced by the same strategy as F0 (C2332T); C2332T is stated for F0 and 'our construct'; FNMR was made 'using the same strategy'; source: E. coli BL21 DE3 Star, purified (HisTrap, TEV cleavage, SEC); not shown: GB1, C-terminal, cleaved; His6, C-terminal, cleaved
